Assays:
Format in all cases: cell-based
[1] = test system: differentiated mouse adipocyte cell line 3T3-L1; experiment: Enhancing action by anti-GM2A antibody and ligand on glucose uptake (2-deoxyglucose incorporation)
Procedure: (§1) Mouse adipocyte cell line 3T3-L1 was purchased from Health Science Research Resources Bank. Cells of the purchased mouse adipocyte cell line […] were cultured in a D-MEM containing 10% fetal bovine serum (hereinafter referred to as D-MEM (10)) at 37° C. under an atmosphere of 5% CO2. The cultured cells were plated on a 6-well plate. Two days after becoming confluent, the culture solution was exchanged for a pre-differentiation culture solution (D-MEM (10) containing 1 μg/ml insulin, 0.5 mM 3-isobutyl-1-methylxanthine, and 1 μM dexamethasone), and the culture was further cultured for another 4 days. […] Here, the protein concentration of the specimen was measured using BCA Protein Assay Reagent (catalogue No. 23228, Pierce) using bovine serum albumin as a standard protein.
The amount of 2-deoxyglucose in the specimen was quantitatively determined according to the following method. To a plate for fluorescence measurement, were added 100 μl of an assay buffer (50 mM triethanolamine (pH 8.1), 50 mM KCl, 0.5 mM MgCl2, 0.02% bovine serum albumin, 670 μM ATP, 0.12 μM NADP^+, 25 μM resazurin, 5.5 units/ml hexokinase, 16 units/ml G6PDH, 1 units/ml diaphorase) and 100 μl of the specimen. After keeping the obtained mixture at 37° C. for 90 minutes, the fluorescence intensity of the obtained mixture was measured (excitation wavelength: 530 nm, detection wavelength: 595 nm). […]

[2] = test system: rat pheochromocytoma cell line PC12; experiment: Inhibition by GM2A protein of NGF intracellular signaling (Akt phosphorylation, Western blot); conditions: for Phosphorylated Akt/Akt: NGF + (0.1 μg/ml, 10 minutes), 24 hours, no NGF = 1.0, NGF alone = 1.8
Procedure: (§2) Mouse skeletal muscle cell line C2C12 (CRL-1772) and rat pheochromocytoma cell line PC12 (CRl-1721) were purchased from ATCC. Cells of the both cell lines were cultured in a D-MEM medium containing 10% inactivated fetal bovine serum (catalogue No. 14247-15, NACALAI TESQUE, INC.) at 37° C. under an atmosphere of 5% CO2. Cells of differentiated mouse skeletal muscle cell line C2C12 were prepared by exchanging the medium for a D-MEM containing 2% inactivated equine serum and culturing the mixture for […].
(§3) Human GM2A protein was prepared as follows. First, a cDNA was prepared from human lung cancer cell line HARA-B (catalogue No. JCRB1080.1, Health Science Research Resources Bank), using oligo(dT). Using the prepared cDNA, a PCR fragment containing the full length of human GM2A gene was obtained. The obtained PCR fragment was inserted into pET24a vector (catalogue No. 69749-3, Novagen), whereby human GM2A/pET24a plasmid was prepared. Next, after human GM2A/pET24a was added to Escherichia coli BL21 (DE3) pLysS (catalogue No. 69451-4, Novagen) to transform the Escherichia coli, the obtained Escherichia coli was cultured on shaking in an LB medium containing 50 μg/ml kanamycin at 37° C. until OD600=about 0.5. Then, after Isopropyl-β-thiogalactopyranoside (catalogue No. 9030, Takara Bio Inc.) was added to the obtained culture so that the final concentration could be 0.5 mM, the culture was further cultured on shaking at 18° C. for 3 hours. Bacterial cells were collected by centrifuging the obtained culture, and the collected bacterial cells were sonicated. Then, the obtained homogenate was centrifuged at 11,000 rpm for 30 minutes. After Ni-NTA agarose (catalogue No. 1018244, Qiagen) was added to the obtained supernatant and left at 4° C. for 2 hours, the obtained left object was washed 5 times. From the obtained washed object, an elution fraction of a protein was obtained by elution of a protein with 250 mM imidazole. The obtained elution fraction was purified by anion exchange chromatography HiTrapQ HP, whereby human GM2A protein was prepared. […]

[3] = test system: mouse adipocyte cell line 3T3-L1; experiment: Inhibitory action by GM2A protein on glucose uptake (2-deoxyglucose incorporation); conditions: for Amount of 2-Deoxyglucose: relative value per amount of protein, Insulin +, no insulin = 100, insulin alone = 215
Procedure: as §1, with “days. Next, after the pre-differentiation culture solution was exchanged for a post-differentiation culture solution (D-MEM (10) containing 1 insulin) and the culture was cultured for 3 days, the culture solution was exchanged for a D-MEM (10) containing mouse GM2A protein, and the culture was further cultured for another day.” for “days.”
The amount of 2-deoxyglucose in the specimen was quantitatively determined according to the following method. To a plate for fluorescence measurement, were added 100 μl of an assay buffer (50 mM triethanolamine (pH 8.1), 50 mM KCl, 0.5 mM MgCl2, 0.02% bovine serum albumin, 670 μM ATP, 0.12 μM NADP^+, 25 μM resazurin, 5.5 units/ml hexokinase, 16 units/ml G6PDH, 1 units/ml diaphorase) and 100 μl of the specimen. After keeping the obtained mixture at 37° C. for 90 minutes, the fluorescence intensity of the obtained mixture was measured (excitation wavelength: 530 nm, detection wavelength: 595 nm). A calibration curve was created using 2-deoxyglucose of 500 μM, 250 μM, 125 μM and 0 μM (purified water) as a standard, and quantitative determination was carried out on the basis of the calibration curve. The amount of 2-deoxyglucose incorporated into a cell per the amount of protein of the specimen was calculated as a relative value.

[4] = test system: undifferentiated mouse skeletal muscle cell line C2C12; experiment: Inhibition by GM2A protein of leptin intracellular signaling (AMPK alpha phosphorylation, Western blot); conditions: for Phosphorylated AMPK alpha/AMPK alpha: Leptin + (0.1 μg/ml, 30 minutes), 24 hours, no leptin = 1.0, leptin alone = 1.9
Procedure: as §2, §3

[5] = test system: differentiated mouse skeletal muscle cell line C2C12; experiment: Inhibition by GM2A protein of insulin intracellular signaling (Akt phosphorylation, Western blot); conditions: for Phosphorylated Akt/Akt: Insulin + (1 μg/ml, 10 minutes), 24 hours, no insulin = 1.0, insulin alone = 2.1
Procedure: as §2, §3

[6] = concentration-dependent, 2 and 4 μg/ml

## ganglioside GM2
[1]
  intracellular incorporation of 2-deoxyglucose: enhanced
[1]; relative value, 1 μM, 1 day, DMSO = 100
  Amount of 2-Deoxyglucose: 120

B1: GM2A Protein: mouse GM2A protein added to the culture solution of 3T3-L1 cells in Example 8 (protein)
chain: ARLVPKRLSQLGGFSWDNCDEGKDPAVIKSLTIQPDPIVVPGDVVVSLEGKTSVPLTAPQKVELTVEKEVAGFWVKIPCVEQLGSCSYENICDLIDEYIPPGESCPEPLHTYGLPCHCPFKEGTYSLPTSNFTVPDLELPSWLSTGNYRIQSILSSGGKRLGCIKIAASLKGR
[2]; [6]
  intracellular signaling of NGF: inhibited
[3]; concentration-dependent, 2 and 10 μg/ml
  enhancing action by insulin on intracellular incorporation of 2-deoxyglucose: inhibited
[3]; GM2A Protein 2 μg/ml
  Amount of 2-Deoxyglucose: 184
[3]; GM2A Protein 10 μg/ml
  Amount of 2-Deoxyglucose: 156
[4]; [6]
  intracellular signaling of leptin: inhibited
[5]; [6]
  intracellular signaling of insulin: inhibited

B2: GM2AP: Human GM2A protein expressed in Escherichia coli from human GM2A/pET24a, purified by Ni-NTA agarose and anion exchange chromatography (protein)
chain: HLKKPSQLSSFSWDNCDEGKDPAVIRSLTLEPDPIIVPGNVTLSVMGSTSVPLSSPLKVDLVLEKEVAGLWIKIPCTDYIGSCTFEHFCDVLDMLIPTGEPCPEPLRTYGLPCHCPFKEGTYSLPKSEFVVPDLELPSWLTTGNYRIESVLSSSGKRLGCIKIAASLKGI
[2]; GM2AP 2 μg/ml
  Phosphorylated Akt/Akt: 1.5
[2]; GM2AP 4 μg/ml
  Phosphorylated Akt/Akt: 1.4
[4]; GM2AP 2 μg/ml
  Phosphorylated AMPK alpha/AMPK alpha: 1.0
[4]; GM2AP 4 μg/ml
  Phosphorylated AMPK alpha/AMPK alpha: 0.9
[5]; GM2AP 2 μg/ml
  Phosphorylated Akt/Akt: 1.8
[5]; GM2AP 4 μg/ml
  Phosphorylated Akt/Akt: 1.2
